Experimental findings from US20190218296A1 (APEXIGEN, published 2019) are described below.

Assay [1] has as its target T1, human PD-L1 on cells (human, UniProt Q9NZQ7 19-290).
T1 construct: whole, on cells; also called HEK-PD-L1 cells; PD-L1-expressing HEK 293 cells
Put plainly: flow cytometry on monocyte-derived dendritic cells, saturation fit on a linear axis. Background: In flow cytometry, cells or beads pass a laser one at a time.

Assay [2] deals with T1, human PD-L1 on cells. Put plainly: flow cytometry on monocyte-derived dendritic cells, MFI.
In assay [3] the target is T1, human PD-L1 on cells. Description: flow cytometry on monocyte-derived dendritic cells; PE anti-human Fc, MFI. On the procedure: The chimeric PD-L1 antibodies were further assessed for their ability to bind to human myeloid-derived dendritic cells. CD14 monocytes were isolated from PBMC using directly conjugated magnetic beads (Miltenyi) and cultured for 7 days in the presence of GM-CSF (100 ng/ml) and IL-4 (50 ng/ml) (Peprotech) to generate myeloid dendritic cells (mDC). mDC were added to 96-well plates (100,000 cells/well) and serial dilution of anti-PD-L1 antibodies or IgG1 isotype control antibody was added in duplicates and plates were incubated for 30 min on ice. After washing, a PE-conjugated donkey anti-human Fc specific antibody (Jackson Immunoresearch, 1:200 dilution) was added and plates were further incubated for 15 minutes on ice. After washing, cells were analyzed using a MACS quant flow cytometer.

Assay [4] addresses T2, human PD-L1-his (Sino Biologics) (human, UniProt Q9NZQ7 19-238).
T2 construct: Bought from Sino Biologics; not shown: his tag
Put plainly: competition ELISA: human PD-L1-his coated at 1 µg/ml, antibody dilutions, then human PD-1-mouse-Fc at 1 µg/ml, anti-mouse IgG-HRP, OD 650 nm. On the procedure: Plates were coated with 100 μl of 1 μg/ml human PD-L1-his (Sino Biologics, Beijing, China) in carbonate-bicarbonate buffer overnight. After washing, plates were blocked with PBS 0.05% Tween-20 for 1 hour, and serial dilutions of anti-PD-L1 human chimeric antibody or IgG1 isotype control antibody was added. […] After washing, goat anti-mouse IgG (H+L)-HRP antibody (Jackson ImmunoResearch West Grove, Pa.) and plates were further incubated for 1 hour. After washing, TMB substrate (SurModics, Eden Prairie, Minn.) was added. The reaction was stopped using stop solution (SurModics) and plates were read at OD=650 nanometer.
(ELISA stands for enzyme-linked immunosorbent assay.)

In assay [5] the target is T1, human PD-L1 on cells. Put plainly: flow cytometry on activated CD4 T cells, saturation fit on a linear axis.
The target of assay [6] is T3, recombinant human PD-L1 (human, UniProt Q9NZQ7 19-238, limits assumed).
T3 construct: also called PD-L1 protein
T3 sequence (Q9NZQ7 19-238 limits assumed): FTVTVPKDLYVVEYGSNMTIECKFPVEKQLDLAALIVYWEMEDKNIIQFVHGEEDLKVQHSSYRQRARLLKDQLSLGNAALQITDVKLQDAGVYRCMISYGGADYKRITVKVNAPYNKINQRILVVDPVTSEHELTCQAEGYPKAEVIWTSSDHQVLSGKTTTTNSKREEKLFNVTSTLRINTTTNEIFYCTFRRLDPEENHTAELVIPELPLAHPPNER
Put plainly: ELISA on human PD-L1, OD 650 nm.

For assay [7], the target named is T1, human PD-L1 on cells. Description: flow cytometry on HEK-PD-L1 cells, saturation fit on a linear axis; column head prints only Kd, unit taken from the axis Ab (nM).
Assay [8] has as its target T1, human PD-L1 on cells. Description: flow cytometry on HEK PD-L1 cells, saturation fit on a linear axis.
The target in assay [9] is T4, recombinant cynomolgus monkey PD-L1 (cynomolgus monkey, UniProt G7PSE7 19-238).
T4 construct: also called cynomolgus macaque PD-L1
T4 sequence (G7PSE7 entry or part of it limits assumed): as the sequence (Q9NZQ7 19-238 limits assumed) above, with A33T, A34S, S62N, R68Q, Q82R, F173L, T185A, T192I, H215L counted along it
Put plainly: direct ELISA on plate-coated recombinant cynomolgus monkey PD-L1; anti-human Fc-HRP, TMB, OD 650 nm. On the procedure: To assess specificity of the selected clones, a direct ELISA for human and cynomolgus monkey PD-L1 was performed. ELISA plates were coated with recombinant human or cynomolgus monkey PD-L1. […] Serial dilutions of chimeric anti-PD-L1 antibodies were added, and a secondary HRP-conjugated, anti-human Fc-specific antibody was added. After washing, TMB substrate was added and plates were read at OD 650 nm.

In assay [10] the target is T1, human PD-L1 on cells. Description: flow cytometry on activated CD4 T cells, MFI.
Assay [11] deals with T1, human PD-L1 on cells. Put plainly: flow cytometry on HEK PD-L1 cells, MFI.
The target in another assay is mouse PD-L1 (mouse, UniProt Q9EP73 19-239, limits assumed). Description: assay not described.
Chain of mouse PD-L1 (Q9EP73 19-239 limits assumed): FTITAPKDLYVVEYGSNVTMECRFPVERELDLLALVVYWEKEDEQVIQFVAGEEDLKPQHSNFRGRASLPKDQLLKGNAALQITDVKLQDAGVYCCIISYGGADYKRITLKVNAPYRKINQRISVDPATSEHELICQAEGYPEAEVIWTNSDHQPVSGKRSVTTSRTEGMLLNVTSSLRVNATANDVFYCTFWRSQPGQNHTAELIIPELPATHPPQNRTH
Assay [12] concerns the target T1, human PD-L1 on cells. Put plainly: flow cytometry on HEK-PD-L1 cells; PE anti-human Fc, MFI.
For assay [13], the target named is T1, human PD-L1 on cells. Description: flow cytometry on CD4 T cells activated with anti-CD3; MFI; column head prints only EC50, unit taken from the axis Antibody Concentration (nM).
In assay [14] the target is T1, human PD-L1 on cells. Put plainly: flow cytometry on human PD-L1 transfected HEK 293 cells; PE anti-human Fc, MFI. On the procedure:
Stable human PD-L1 transfected HEK 293 cells (Crown Bio, San Diego, Calif.) were added to 96-well plates (100,000 cells/well) and serial dilution of anti-PD-L1 antibodies or IgG1 isotype control antibody was added in duplicates and plates were incubated for 30 minutes on ice. After washing, a PE-conjugated donkey anti-human Fc specific antibody (Jackson Immunoresearch, West Grove, Pa. 1:200 dilution) was added and plates were further incubated for 15 minutes on ice. After washing, cells were analyzed using a MACS quant flow cytometer.

Assay [15] has as its target T3, recombinant human PD-L1. Description: competition ELISA: PD-L1 coated, serial dilutions of the antibody, then biotinylated Atezolizumab at 1 µg/ml, streptavidin-HRP, OD 650 nm.

T1 sequence (Q9NZQ7 19-290): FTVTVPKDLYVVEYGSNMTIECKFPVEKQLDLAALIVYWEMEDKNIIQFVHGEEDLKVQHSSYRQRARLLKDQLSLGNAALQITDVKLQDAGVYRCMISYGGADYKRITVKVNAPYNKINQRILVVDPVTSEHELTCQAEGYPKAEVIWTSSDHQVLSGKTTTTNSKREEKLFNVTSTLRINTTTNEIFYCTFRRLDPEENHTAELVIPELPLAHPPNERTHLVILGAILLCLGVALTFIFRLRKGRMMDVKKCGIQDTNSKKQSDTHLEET
T2 sequence (Q9NZQ7 19-238 limits assumed): as the sequence (Q9NZQ7 19-238 limits assumed) above

B1: chimeric anti-PD-L1 antibody 9A9 (antibody, human IgG1, V domains shown)
VH: QSVEESGGRLVTPGTPLTLTCTVSGIDLSGYWMSWVRQAPGKGLEYIGIVDNDGSAYYASWVNGRFTISKTSTTVDLKITSPTTEDTATYFCARQSGDWTFDLWGPGTLVTVSS
VL: DVVMTQTPASVSEPVGGTVTIKCQASQSIGRWLSWYQQKPGQPPKLLIYQASKLASGVPSRFSGSGSGTEFTLTISDLECADAATYYCQNNYDIIAYGNAFGGGTEVVVK
notes: also called c9A9; chimeric 9A9
By Kd is commonly meant the free concentration of one partner at which half of the binding sites on the other are occupied at equilibrium, for simple one-to-one binding. Usually EC50 stands for the concentration that produces a half-maximal response. The EC50 (read off the curve) is the concentration at which the effect is half-maximal. Take B1: the equilibrium dissociation constant (Kd) worked out at 0.79 nM with human PD-L1 on cells [1], 0.015 nM with human PD-L1 on cells [5], 0.3 nM in the assay with human PD-L1 on cells [7] and 0.16 nM in the assay with human PD-L1 on cells [8]. Moreover, the EC50 is 1.66 nM with human PD-L1 on cells [2]; 0.4 nM in the assay with human PD-L1 on cells [3]; 7.13 ng/mL with recombinant human PD-L1 [6]; 0.019 nM in the assay with human PD-L1 on cells [10]; 0.27 nM with human PD-L1 on cells [11]; 0.68 nM with human PD-L1 on cells [13]. In addition, in the assay with human PD-L1 on cells [14], it took 0.17 nM to reach a half-maximal effect (EC50). In addition, in assay [4], the “IC50 (read off the curve)” value is about 20 ng/mL. Further, the “EC50 (read off the curve)” value was about 4 ng/mL in assay [9] and about 0.4 nM with human PD-L1 on cells [12]. For the same molecule, the binding result with mouse PD-L1 is recorded as “no binding”.

B2: chimeric anti-PD-L1 antibody 11B11 (antibody, human IgG1, V domains shown)
VH: QSVEESGGRLVTPGGTLTLTCTASGFSLSNYTMAWVRQAAGKGLEWIGYINTGGSPYYASWAKGRFTISRSSTTVDLKMTSLTTEDTATYFCARNVDGAWNYLNLWGPGTLVTVSS
VL: AYDMTQTPASVEVVVGGTVTIKCQASETINTYLSWYQQKPGQRPRLLIYAASNLASGVPSRFSGSGSGTEFTLTISGVQCADAATYYCQQGINSNVGNTFGGGTEVVVK
Take B2: the binding result in the assay with recombinant human PD-L1 [15] was “binds”.
